Data on 1 molecule can be found in PMC6985235, “Endomembrane Protein Trafficking Regulated by a TvCyP2 Cyclophilin in the Protozoan Parasite, Trichomonas vaginalis” (Scientific Reports, 2020).

Assay [1] addresses T1, GST-TvCyP2 (Trichomonas vaginalis, UniProt A2DLL4 1-186).
T1 construct: 186 aa; source: E. coli DH5α, purified (glutathione-conjugated beads)
Briefly: pull-down; GST pull-down: 30 picomoles of GST or GST-fusion protein on 20 μl glutathione beads with 35 nM His-tagged protein in 1 ml TEN200 (1 mM EDTA, 200 mM NaCl, 20 mM Tris-HCl pH 7.4), 4 °C overnight; washes with 0.1% TritonX-100; anti-6xHis Western blot; in Fig. 3D also with DMSO or 5 μM cyclosporine A (binding greatly diminished). As to conditions: both partners purified.

Assay [2] deals with T2, GST-TvCyP2(R75A) (Trichomonas vaginalis, UniProt A2DLL4 1-186, R75A).
T2 construct: source: E. coli DH5α, purified (glutathione-conjugated beads)
Described as above. As to conditions: both partners purified.

B1: His-TvCyP1 (enzyme)
chain: not shown
notes: TvCyP1 cyclophilin of Trichomonas vaginalis; ~19-kDa band; source: purified
For B1, the binding result in assay [1] and in assay [2] was “binds” in each case.
